Holding throughout (experiment): ITC; YEATS domain in the measurement cell (90-130 uM), histone peptides in the injection syringe (1.2 mM); 50 mM Hepes pH 7.4, 300 mM NaCl, 5 mM beta-mercaptoethanol, 25 °C; MicroCal ITC200 and TA Nano microcalorimeters; triplicate
Background: Isothermal titration calorimetry measures the heat released or taken up as one component is titrated into another.

In experiment [1] the target is MLLT1 YEATS domain polypeptide p.111_113NPP>K (human) (UniProt Q03111).
Experiment [2] has as its target wild-type MLLT1 YEATS domain polypeptide (residues 1-138 of human MLLT1) (human) (UniProt Q03111).
The target of experiment [3] is T1, MLLT1 YEATS domain polypeptide p.112_114PPV>L (human, UniProt Q03111 1-138, p.112_114PPV>L).
T1 construct: Somatic mutation found in tumours; source: E. coli BL21(pLysS), purified (Ni-NTA sepharose, size exclusion chromatography)
T1 sequence (looked up): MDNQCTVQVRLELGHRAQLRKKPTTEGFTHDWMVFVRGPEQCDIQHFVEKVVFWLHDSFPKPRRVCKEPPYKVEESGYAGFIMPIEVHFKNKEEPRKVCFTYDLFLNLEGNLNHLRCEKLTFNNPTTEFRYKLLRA
The settings on record: both partners purified.

Experiment [4] addresses T2, wild-type MLLT1 YEATS domain polypeptide (residues 1-138 of human MLLT1) (human, UniProt Q03111 1-138).
T2 construct: MLLT1 (ENL), human, YEATS domain, residues 1-138; codon-optimized DNA in pET28 with a thrombin cleavage site between the 6His tag and the protein; also called ENL; YEATS1; source: E. coli BL21(pLysS), purified (Ni-NTA sepharose, size exclusion chromatography)
T2 sequence (looked up): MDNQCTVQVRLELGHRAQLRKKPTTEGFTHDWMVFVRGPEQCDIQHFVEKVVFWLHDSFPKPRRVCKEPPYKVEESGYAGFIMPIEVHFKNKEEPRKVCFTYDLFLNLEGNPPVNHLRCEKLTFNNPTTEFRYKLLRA
As to conditions: both partners purified.

A word on the Kd: it is the equilibrium constant for the complex coming apart. A low value points to higher affinity.

In the case of H3K27ac histone H3 tail peptide, the Kd in experiment [1] is 330 µM; in experiment [2], 140 µM.

With ARTKQTARKST (acetyl-lysine at K9) [H3K9ac histone H3 tail peptide], the Kd in experiment [3] came to 107 µM; in experiment [4], 60 µM.

Values taken from article PMC4686660, “MLLT1 YEATS domain mutations in clinically distinctive Favourable Histology Wilms tumours” (Nature Communications, 2015).
